In US7977317B2, “Compositions and methods for modulating blood-brain barrier transport” (Raptor Pharmaceutical Inc., priority 2001, dated 2011):

Assays:
BBCEC monolayers = experiment: Sucrose permeability of BBCEC monolayers (in vitro BBB model) in the presence of p97; type: cell-based, bovine
Experimental: FIG. 2. Effect of p97 (1 μm) on sucrose permeability with BBCECs that were preincubated for 2 hrs at 37° C. The effect of p97 at 1 μM on sucrose permeability of the in vitro BBB model was tested. The permeability coefficient (Pe) for sucrose was calculated as previously described (Dehouck, et al., J. Neurochem., 58:1790-179 (1992)) using filters coated or non-coated with BBCE cells. Briefly, coated or non-coated filters with BBCE cells were transferred to 6-well plates containing 2 ml of Ringer/Hepes per well (basolateral compartment) for 2 hrs at 37° C. In each apical (i.e., luminal) chamber, the culture medium was replaced by 1 ml Ringer/Hepes containing labeled [^14C]-sucrose. […] At the end of the experiments, amounts of the radiotracers in the basolateral (i.e., abluminal) compartment were measured in a liquid scintillation counter. The permeability coefficient (Pe) was calculated as described in FIG. 1.
FIG. 14 illustrates the stability of p97 and integrity of the BBCEC monolayers following p97 transcytosis. […] The gels were dried and scanned to quantify the amount of intact p97 that crossed the BBCEC monolayers at 37° C. and 4° C. […]
D. Sucrose permeability. The permeability coefficient for sucrose was measured to verify the endothelial permeability and the integrity and tightness of the BBCEC monolayers, as previously described, using uncoated filters or coated with endothelial cells. […]

Megalin = experiment: RT-PCR after p97 treatment in U-87 cells: Megalin; type: cell-based, human; conditions: 72 hours, RT-PCR (FIG. 35)
Experimental: FIG. 35. Effect of p97 and RAP treatments in U-87 cells (RT-PCR). Cells (2×10^5) were plated onto six-multiwell microplates and grown at 37° C. under 5% CO2 with optimal culture medium supplemented with serum for 4 days. Treatment was performed in serum free medium for 72 hours. RNA isolation and RT-PCR were performed as described in the Examples. The amplified PCR products were electrophoresed on a 2% agarose gel and visualized under ultraviolet light. (n=2 for p97), (n=1 for RAP)
FIG. 38. Effect of p97 and RAP treatments in U-87 cells on expression of cubulin (A), P97 (B) and Megalin (C). The amplified PCR products were electrophoresed on a 2% agarose gel and visualized under ultraviolet light. (n=1). Quantification was by densitometry of p97 and RAP treatments on the RNA levels of LRP1B, LRP, LDL-R, cubilin, endogenous p97 and megalin. Results are expressed as ratios of RNA levels between control and treated U-87 cells.
RNA extraction. Cells in six-wells plate or in 75 cm^2 plastic tissue culture flasks were grown at 37° C. under 5% CO2 with optimal culture medium to 80-90% confluence. Total cellular RNA was preserved in Trizol (Gibco BRL, Burlington, ON). The solution are frozen at −80° C. until extraction. The solution was defroze and mixed with 5:1 chloroform for 3 minutes at room temperature. The suspension was centrifugated at 12000 g at 4° C. […]

B1: p97: recombinant human melanotransferrin (p97), provided by Synapse Technologies (protein, UniProt P08582 20-709, looked up)
Melanotransferrin: GMEVRWCATSDPEQHKCGNMSEAFREAGIQPSLLCVRGTSADHCVQLIAAQEADAITLDGGAIYEAGKEHGLKPVVGEVYDQEVGTSYYAVAVVRRSSHVTIDTLKGVKSCHTGINRTVGWNVPVGYLVESGRLSVMGCDVLKAVSDYFGGSCVPGAGETSYSESLCRLCRGDSSGEGVCDKSPLERYYDYSGAFRCLAEGAGDVAFVKHSTVLENTDGKTLPSWGQALLSQDFELLCRDGSRADVTEWRQCHLARVPAHAVVVRADTDGGLIFRLLNEGQRLFSHEGSSFQMFSSEAYGQKDLLFKDSTSELVPIATQTYEAWLGHEYLHAMKGLLCDPNRLPPYLRWCVLSTPEIQKCGDMAVAFRRQRLKPEIQCVSAKSPQHCMERIQAEQVDAVTLSGEDIYTAGKTYGLVPAAGEHYAPEDSSNSYYVVAVVRRDSSHAFTLDELRGKRSCHAGFGSPAGWDVPVGALIQRGFIRPKDCDVLTAVSEFFNASCVPVNNPKNYPSSLCALCVGDEQGRNKCVGNSQERYYGYRGAFRCLVENAGDVAFVRHTTVFDNTNGHNSEPWAAELRSEDYELLCPNGARAEVSQFAACNLAQIPPHAVMVRPDTNIFTVYGLLDKAQDLFGDDHNKNGFKMFDSSNYHGQDLLFKDATVRAVPVGEKTTYRGWLGLDYVAALEGMSSQQC
In the case of B1, the “Change in sucrose permeability by p97” value (BBCEC monolayers; 1 micromolar p97 (FIG. 2)) is reported as “no significant change”, the “Clearance of sucrose in the presence of p97” value (BBCEC monolayers; high concentration of p97 (FIG. 14c)) is reported as “No significant increase” and the “Expression of the Megalin receptor” value (Megalin) is reported as “not”.
